Experiments:
Details in all cases: both partners purified
[1] = molecular target: T1, N-terminally tagged P672 (P672_RHIPU), glycosylated (Rhipicephalus pulchellus, UniProt L7MC74 22-125); assay: BLI
T1 construct: source: HEK293F, transiently transfected, purified from culture supernatant (nickel IMAC, size exclusion chromatography)
T1 sequence: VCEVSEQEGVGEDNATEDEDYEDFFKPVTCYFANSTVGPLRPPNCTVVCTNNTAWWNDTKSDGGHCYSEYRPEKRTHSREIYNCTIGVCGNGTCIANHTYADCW

[2] = molecular target: T2, P672 with residues Val-1—Thr-16 truncated (Rhipicephalus pulchellus, UniProt L7MC74 38-125); assay: BLI
T2 sequence: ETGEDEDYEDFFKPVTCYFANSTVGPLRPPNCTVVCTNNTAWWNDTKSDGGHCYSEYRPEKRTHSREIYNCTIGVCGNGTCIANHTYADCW

[3] = molecular target: T3, partially deglycosylated N-terminally tagged P672 (Rhipicephalus pulchellus, UniProt L7MC74 22-125); assay: BLI
T3 sequence: T1 sequence

[4] = molecular target: T3, partially deglycosylated N-terminally …; assay: native MS

B1: CCL11 (ligand)
chain: not shown
- Kd [1]: < 10 nM

B2: CCL8 (human chemokine panel) (ligand, UniProt P80075 24-99, looked up)
chain: QPDSVSIPITCCFNVINRKIPIQRLESYTRITNIQCPKEAVIFKTKRGKEVCADPKERWVRDSMKHLDQIFQNLKP
notes: also called MCP-2
- Kd [2]: 30.4 nM
- Kd [3]: 72.5 nM

B3: human CCL8 (residues Gln-24 to Pro-99), expressed in E. coli (ligand, UniProt P80075 24-99, looked up)
chain: B2 chain
notes: also called Purified CCL8
- stoichiometry N [4]: 1

B4: CCL1 (ligand, human, UniProt P22362 24-96, looked up)
chain: KSMQVPFSRCCFSFAEQEIPLRAILCYRNTSSICSNEGLIFKLKRGKEACALDTVGWVQRHRKMLRHCPSKRK
- binding result [1]: binds

B5: CCL3L1 (ligand, human, UniProt P16619 24-93, looked up)
chain: APLAADTPTACCFSYTSRQIPQNFIADYFETSSQCSKPSVIFLTKRGRQVCADPSEEWVQKYVSDLELSA
- binding result [1]: binds

B6: CCL23 (ligand, human, UniProt P55773 22-120, looked up)
chain: RVTKDAETEFMMSKLPLENPVLLDRFHATSADCCISYTPRSIPCSLLESYFETNSECSKPGVIFLTKKGRRFCANPSDKQVQVCMRMLKLDTRIKTRKN
- Kd [1]: < 10 nM

B7: CCL16 (ligand, human, UniProt O15467 24-120, looked up)
chain: QPKVPEWVNTPSTCCLKYYEKVLPRRLVVGYRKALNCHLPAIIFVTKRNREVCTNPNDDWVQEYIKDPNLPLLPTRNLSTVKIITAKNGQPQLLNSQ
- binding result [1]: binds

B8: CCL18 (ligand, human, UniProt P55774 21-89, looked up)
chain: AQVGTNKELCCLVYTSWQIPQKFIVDYSETSPQCPKPGVILLTKRGRQICADPNKKWVQKYISDLKLNA
- Kd [1]: < 10 nM

B9: CCL14 (ligand, human, UniProt Q16627 20-93, looked up)
chain: TKTESSSRGPYHPSECCFTYTTYKIPRQRIMDYYETNSQCSKPGIVFITKRGHSVCTNPSDKWVQDYIKDMKEN
- Kd [1]: < 10 nM

B10: CCL7 (ligand)
chain: not shown
notes: also called MCP-3
- binding result [1]: binds

B11: CCL3 (ligand, human, UniProt P10147 24-92, looked up)
chain: SLAADTPTACCFSYTSRQIPQNFIADYFETSSQCSKPGVIFLTKRSRQVCADPSEEWVQKYVSDLELSA
- binding result [1]: binds
